Earlier results on two substances are cited in article PMC4026351.

What is called pKd is the negative decadic logarithm of the Kd, by convention in mol/L.

Data set [1] has as its target BtuB (Escherichia coli) (UniProt P06129).
Data set [2] shares this target. This is another data set of the same source.

pKd: −log10 of the molar value. Like-named read-outs stand apart in the source and are kept apart here.

Chain of UniProt P06129 (P06129 21-614): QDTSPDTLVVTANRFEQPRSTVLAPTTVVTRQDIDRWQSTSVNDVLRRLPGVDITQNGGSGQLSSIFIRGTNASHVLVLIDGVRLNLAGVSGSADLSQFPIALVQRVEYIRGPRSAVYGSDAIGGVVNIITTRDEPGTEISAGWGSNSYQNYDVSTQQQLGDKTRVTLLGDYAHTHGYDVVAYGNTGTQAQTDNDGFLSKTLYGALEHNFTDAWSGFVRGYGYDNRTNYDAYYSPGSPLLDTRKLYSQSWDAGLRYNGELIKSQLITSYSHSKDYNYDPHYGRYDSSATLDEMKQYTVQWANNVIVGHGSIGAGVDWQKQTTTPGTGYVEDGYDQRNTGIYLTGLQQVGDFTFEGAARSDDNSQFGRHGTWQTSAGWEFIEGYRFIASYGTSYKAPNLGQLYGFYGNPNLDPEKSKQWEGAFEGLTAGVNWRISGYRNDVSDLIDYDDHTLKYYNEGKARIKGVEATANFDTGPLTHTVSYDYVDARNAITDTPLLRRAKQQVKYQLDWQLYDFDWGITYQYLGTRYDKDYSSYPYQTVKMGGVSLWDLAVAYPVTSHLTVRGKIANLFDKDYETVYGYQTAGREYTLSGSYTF

Regarding “colicin E2 R-domain (from UniProt P04419)”, in data set [1], the pKd was 8.82.

For the substance “colicin E3 R-domain (from UniProt P00646)”, the negative-log Kd (pKd) in data set [2] is 8.82.
